According to patent publication US6162627, “Methods of identifying inhibitors of sensor histidine kinases through rational drug design” (University of Medicine and Dentistry of New Jersey, dated 2000):

What was measured:
[1] = target: EnvZ(C)(223-289) (Escherichia coli)
[2] = target: the molecule itself; assay: gel filtration (21.6 kDa) and dynamic light scattering (26.5 kDa) against a calculated molecular weight of 17.6 kDa

| Molecule | phosphorylation activity on sub-domain A against that of H6-EnvZ(C)H1 [1] [%] | binding result [2] |
| --- | --- | --- |
| EnvZ(C)(290-450) (enzyme) | 5 | – |
| EnvZ(C)(290-450) (enzyme) TGQEMPMEMADLNAVLGEVIAAESGYEREIETALYPGSIEVKMHPLSIKRAVANMVVNAARYGNGWIKVSSGTEPNRAWFQVEDDGPGIAPEQRKHLFQPFVRGDSARTISGTGLGLAIVQRIVDNHNGMLELGTSERGGLSIRAWLPVPVTRAQGTTKEG | – | no binding |
